From IntAct's records for PubMed 26290419 come the findings set out here.

To fix the notation:
B1: Kinesin-like protein KIF24 (Homo sapiens), Q5T7B8 (parent)
chain: MASWLYECLCEAELAQYYSHFTALGLQKIDELAKITMKDYSKLGVHDMNDRKRLFQLIKIIKIMQEEDKAVSIPERHLQTSSLRIKSQELRSGPRRQLNFDSPADNKDRNASNDGFEMCSLSDFSANEQKSTYLKVLEHMLPDDSQYHTKTGILNATAGDSYVQTEISTSLFSPNYLSAILGDCDIPIIQRISHVSGYNYGIPHSCIRQNTSEKQNPWTEMEKIRVCVRKRPLGMREVRRGEINIITVEDKETLLVHEKKEAVDLTQYILQHVFYFDEVFGEACTNQDVYMKTTHPLIQHIFNGGNATCFAYGQTGAGKTYTMIGTHENPGLYALAAKDIFRQLEVSQPRKHLFVWISFYEIYCGQLYDLLNRRKRLFAREDSKHMVQIVGLQELQVDSVELLLEVILKGSKERSTGATGVNADSSRSHAVIQIQIKDSAKRTFGRISFIDLAGSERAADARDSDRQTKMEGAEINQSLLALKECIRALDQEHTHTPFRQSKLTQVLKDSFIGNAKTCMIANISPSHVATEHTLNTLRYADRVKELKKGIKCCTSVTSRNRTSGNSSPKRIQSSPGALSEDKCSPKKVKLGFQQSLTVAAPGSTRGKVHPLTSHPPNIPFTSAPKVSGKRGGSRGSPSQEWVIHASPVKGTVRSGHVAKKKPEESAPLCSEKNRMGNKTVLGWESRASGPGEGLVRGKLSTKCKKVQTVQPVQKQLVSRVELSFGNAHHRAEYSQDSQRGTPARPASEAWTNIPPHQKEREEHLRFYHQQFQQPPLLQQKLKYQPLKRSLRQYRPPEGQLTNETPPLFHSYSENHDGAQVEELDDSDFSEDSFSHISSQRATKQRNTLENSEDSFFLHQTWGQGPEKQVAERQQSLFSSPRTGDKKDLTKSWVDSRDPINHRRAALDHSCSPSKGPVDWSRENSTSSGPSPRDSLAEKPYCSQVDFIYRQERGGGSSFDLRKDASQSEVSGENEGNLPSPEEDGFTISLSHVAVPGSPDQRDTVTTPLREVSADGPIQVTSTVKNGHAVPGEDPRGQLGTHAEYASGLMSPLTMSLLENPDNEGSPPSEQLVQDGATHSLVAESTGGPVVSHTVPSGDQEAALPVSSATRHLWLSSSPPDNKPGGDLPALSPSPIRQHPADKLPSREADLGEACQSRETVLFSHEHMGSEQYDADAEETGLDGSWGFPGKPFTTIHMGVPHSGPTLTPRTGSSDVADQLWAQERKHPTRLGWQEFGLSTDPIKLPCNSENVTWLKPRPISRCLARPSSPLVPSCSPKTAGTLRQPTLEQAQQVVIRAHQEQLDEMAELGFKEETLMSQLASNDFEDFVTQLDEIMVLKSKCIQSLRSQLQLYLTCHGPTAAPEGTVPS
partner: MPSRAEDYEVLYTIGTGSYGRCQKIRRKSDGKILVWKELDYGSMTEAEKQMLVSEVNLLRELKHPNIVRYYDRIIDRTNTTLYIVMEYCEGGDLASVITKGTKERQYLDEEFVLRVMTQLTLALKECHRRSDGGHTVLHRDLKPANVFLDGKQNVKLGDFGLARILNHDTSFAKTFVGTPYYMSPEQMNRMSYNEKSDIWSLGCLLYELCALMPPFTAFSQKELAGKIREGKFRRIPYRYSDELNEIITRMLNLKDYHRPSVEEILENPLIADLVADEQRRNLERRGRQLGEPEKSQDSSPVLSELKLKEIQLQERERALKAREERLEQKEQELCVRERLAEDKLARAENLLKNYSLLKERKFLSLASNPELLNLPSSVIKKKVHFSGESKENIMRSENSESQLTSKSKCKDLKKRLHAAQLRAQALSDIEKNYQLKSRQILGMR

Variants of B1 are the subject of the assay. As to conditions: with nek2_human NEK2, P51955.
For T621A;S622A, the “effect of a mutation on the interaction” value is listed as “decreasing interaction”.
